Data set [1] concerns the target T1, Ku70;Ku80;DNA polymerase mu (Homo sapiens?;Homo sapiens?;Homo …, UniProt P12956;P13010;Q9NP87 1-609;1-732;1-494, ||). The conditions noted are these: protein: recombinant;recombinant;recombinant; copies: 1;1;1; two duplexes: S3/S6 13 bp with 3' overhang GC on S3; S5/S4 11 bp with 3' overhang AGC on S5; GC microhomology between overhangs.
In another data set the target is Ku70;Ku80 (Homo sapiens?;Homo sapiens?, UniProt P12956;P13010 1-609;1-732, |). The conditions noted are these: protein: recombinant;recombinant; copies: 1;1; label: biotin; fork: 35 bp duplex (1:21-55 with 2:1-35), 5' tail 20 nt on strand 1, 3' tail 7 nt on strand 2; the tail ends (1:1-7, 2:36-42) are also complementary.
Data set [2] addresses Ku70;Ku80;DNA polymerase lambda (Homo sapiens?;Homo sapiens?;Homo …, UniProt P12956;P13010;Q9UGP5 1-609;1-732;1-575, ||). The conditions noted are these: protein: recombinant;recombinant;recombinant; copies: 1;1;1; label: biotin; fork: 35 bp duplex (1:21-55 with 2:1-35), 5' tail 20 nt on strand 1, 3' tail 7 nt on strand 2; the tail ends (1:1-7, 2:36-42) are also complementary.

The target in data set [3] is T1, Ku70;Ku80;DNA polymerase mu. The conditions noted are these: protein: recombinant;recombinant;recombinant; copies: 1;1;1; label: biotin; fork: 35 bp duplex (1:21-55 with 2:1-35), 5' tail 20 nt on strand 1, 3' tail 7 nt on strand 2; the tail ends (1:1-7, 2:36-42) are also complementary.

Where two headings read alike, the source gives them in different places.

T1 sequence (P12956 whole entry, chain 1 of 3): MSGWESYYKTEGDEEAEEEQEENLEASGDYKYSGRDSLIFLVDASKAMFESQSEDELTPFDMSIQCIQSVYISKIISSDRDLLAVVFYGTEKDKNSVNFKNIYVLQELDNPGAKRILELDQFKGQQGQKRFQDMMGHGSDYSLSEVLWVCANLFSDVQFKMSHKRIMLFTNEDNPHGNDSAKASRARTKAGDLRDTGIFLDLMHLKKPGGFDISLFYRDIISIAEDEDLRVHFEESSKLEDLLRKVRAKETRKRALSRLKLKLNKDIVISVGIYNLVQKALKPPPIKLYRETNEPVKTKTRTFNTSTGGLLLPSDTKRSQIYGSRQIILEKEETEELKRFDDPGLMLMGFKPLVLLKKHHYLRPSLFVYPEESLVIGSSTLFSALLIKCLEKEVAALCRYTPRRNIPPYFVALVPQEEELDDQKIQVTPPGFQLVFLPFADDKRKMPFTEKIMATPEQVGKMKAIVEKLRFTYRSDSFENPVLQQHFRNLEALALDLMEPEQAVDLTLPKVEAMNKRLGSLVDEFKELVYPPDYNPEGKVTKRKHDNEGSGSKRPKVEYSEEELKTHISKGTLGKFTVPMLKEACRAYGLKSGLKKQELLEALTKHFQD
T1 sequence (P13010 whole entry, chain 2 of 3): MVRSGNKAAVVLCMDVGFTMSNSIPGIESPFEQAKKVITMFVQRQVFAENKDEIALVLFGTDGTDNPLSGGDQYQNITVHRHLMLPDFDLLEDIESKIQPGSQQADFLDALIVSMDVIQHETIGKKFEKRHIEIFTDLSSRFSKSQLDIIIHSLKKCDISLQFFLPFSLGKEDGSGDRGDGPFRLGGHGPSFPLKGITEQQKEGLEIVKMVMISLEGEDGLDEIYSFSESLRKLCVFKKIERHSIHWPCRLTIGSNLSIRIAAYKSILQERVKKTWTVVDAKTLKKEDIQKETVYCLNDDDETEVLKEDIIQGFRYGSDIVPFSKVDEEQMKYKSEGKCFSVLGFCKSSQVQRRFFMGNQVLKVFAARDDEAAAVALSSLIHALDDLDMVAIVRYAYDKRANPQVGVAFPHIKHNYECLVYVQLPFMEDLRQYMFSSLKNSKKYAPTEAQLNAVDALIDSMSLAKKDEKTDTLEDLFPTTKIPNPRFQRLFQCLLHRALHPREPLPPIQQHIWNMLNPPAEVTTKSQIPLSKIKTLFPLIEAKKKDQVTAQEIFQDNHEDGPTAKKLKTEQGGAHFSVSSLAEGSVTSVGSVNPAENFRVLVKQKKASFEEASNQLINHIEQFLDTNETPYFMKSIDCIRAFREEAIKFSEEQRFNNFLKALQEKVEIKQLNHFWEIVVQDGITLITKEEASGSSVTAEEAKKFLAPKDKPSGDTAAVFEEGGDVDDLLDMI
T1 sequence (Q9NP87 whole entry, chain 3 of 3): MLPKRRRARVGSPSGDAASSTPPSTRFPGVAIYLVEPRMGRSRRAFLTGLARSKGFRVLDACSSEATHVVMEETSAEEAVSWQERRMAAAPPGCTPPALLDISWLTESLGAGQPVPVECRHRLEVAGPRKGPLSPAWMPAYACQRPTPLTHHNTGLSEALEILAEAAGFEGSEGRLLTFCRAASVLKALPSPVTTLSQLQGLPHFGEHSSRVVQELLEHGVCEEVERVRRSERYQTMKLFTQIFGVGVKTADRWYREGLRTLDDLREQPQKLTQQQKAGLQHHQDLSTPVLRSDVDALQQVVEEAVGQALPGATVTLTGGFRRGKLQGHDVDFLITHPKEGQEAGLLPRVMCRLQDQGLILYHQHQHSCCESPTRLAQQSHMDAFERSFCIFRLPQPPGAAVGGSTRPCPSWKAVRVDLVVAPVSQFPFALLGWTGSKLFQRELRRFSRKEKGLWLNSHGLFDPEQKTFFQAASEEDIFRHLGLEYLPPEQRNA
Sequence of Ku70;Ku80;DNA polymerase lambda (P12956 whole entry, chain 1 of 3): as the sequence (P12956 whole entry, chain 1 of 3) above
Sequence of Ku70;Ku80;DNA polymerase lambda (P13010 whole entry, chain 2 of 3): as the sequence (P13010 whole entry, chain 2 of 3) above
Sequence of Ku70;Ku80;DNA polymerase lambda (Q9UGP5 whole entry, chain 3 of 3): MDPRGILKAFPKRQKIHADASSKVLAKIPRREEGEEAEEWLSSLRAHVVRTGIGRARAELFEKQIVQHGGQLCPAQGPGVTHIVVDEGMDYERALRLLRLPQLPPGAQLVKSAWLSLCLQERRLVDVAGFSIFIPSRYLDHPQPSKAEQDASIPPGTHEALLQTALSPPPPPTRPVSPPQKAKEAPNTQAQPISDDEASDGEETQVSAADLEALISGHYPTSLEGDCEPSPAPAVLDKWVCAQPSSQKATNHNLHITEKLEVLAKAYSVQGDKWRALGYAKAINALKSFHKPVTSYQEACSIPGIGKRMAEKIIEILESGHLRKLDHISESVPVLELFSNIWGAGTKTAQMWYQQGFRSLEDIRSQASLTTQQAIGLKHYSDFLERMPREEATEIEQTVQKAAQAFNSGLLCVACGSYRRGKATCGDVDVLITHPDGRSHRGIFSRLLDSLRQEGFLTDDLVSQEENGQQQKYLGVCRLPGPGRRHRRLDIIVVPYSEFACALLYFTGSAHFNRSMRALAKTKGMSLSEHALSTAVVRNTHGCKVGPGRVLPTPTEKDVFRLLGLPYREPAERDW
Sequence of Ku70;Ku80 (P12956 whole entry, chain 1 of 2): as the sequence (P12956 whole entry, chain 1 of 3) above
Sequence of Ku70;Ku80 (P13010 whole entry, chain 2 of 2): as the sequence (P13010 whole entry, chain 2 of 3) above

B1: Microhomology DNA for Pol mu (dsDNA)
DNA 1: GGTGCAGCACAGTGC
DNA 2: ACTGTGCTGCACC
DNA 3: GACTGCACGGCAGC
DNA 4: GCCGTGCAGTC
B1: the binding result in data set [1] is listed as “binds”.

B2: Y-shaped 42-55 DNA (dsDNA)
DNA 1: CGCGCCCAGCTTTCCCAGCTAATAAACTAAAAACTATTATTATGGCCGCACGCGT
DNA 2: ACGCGTGCGGCCATAATAATAGTTTTTAGTTTATTGGGCGCG
modifications: 5' biotin on strand 1
In the case of B2, the binding result (in the data set with Ku70;Ku80; in data set [2]; in data set [3]) was “binds” in each case.

These data come from publication PMC12056208.
